We go through seven molecules from article PMC4016182, “First Functional and Mutational Analysis of Group 3 N-Acetylneuraminate Lyases from Lactobacillus antri and Lactobacillus sakei 23K” (PLoS ONE, 2014).

The target in data set [1] is T1, LsNAL (Latilactobacillus sakei, UniProt Q38V37).
T1 construct: gene nanA; N-terminal His-tag (pET-28a), E. coli Rosetta 2; nanA gene 918 bp; homotetramer 140 kDa; EC 4.1.3.3
T1 sequence (Q38V37 1-305): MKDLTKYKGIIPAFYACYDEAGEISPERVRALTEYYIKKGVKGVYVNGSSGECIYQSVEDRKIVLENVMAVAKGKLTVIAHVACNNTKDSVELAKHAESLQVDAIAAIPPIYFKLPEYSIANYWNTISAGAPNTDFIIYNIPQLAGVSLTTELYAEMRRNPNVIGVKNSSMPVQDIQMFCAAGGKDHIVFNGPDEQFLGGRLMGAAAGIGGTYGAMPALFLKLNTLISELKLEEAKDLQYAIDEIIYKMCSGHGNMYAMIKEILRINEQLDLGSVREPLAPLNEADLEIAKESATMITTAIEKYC
Briefly: NAD+-coupled ManNAc dehydrogenase assay, […] nm. Type of data set: biochemical.

Data set [2] has as its target T1, LsNAL. Briefly: thermal shift, SYPRO Orange. Type of data set: binding. To be noted: 5 mM sodium pyruvate; several pHs (4-9).
For a further data set, the target named is T2, LaNAL (Limosilactobacillus antri, UniProt C8P490).
T2 construct: gene FC31_GL000711; N-terminal His-tag (pET-28a), E. coli Rosetta 2; nanA gene printed as 828 bp; homotetramer 140 kDa; EC 4.1.3.3
T2 sequence (C8P490 1-305): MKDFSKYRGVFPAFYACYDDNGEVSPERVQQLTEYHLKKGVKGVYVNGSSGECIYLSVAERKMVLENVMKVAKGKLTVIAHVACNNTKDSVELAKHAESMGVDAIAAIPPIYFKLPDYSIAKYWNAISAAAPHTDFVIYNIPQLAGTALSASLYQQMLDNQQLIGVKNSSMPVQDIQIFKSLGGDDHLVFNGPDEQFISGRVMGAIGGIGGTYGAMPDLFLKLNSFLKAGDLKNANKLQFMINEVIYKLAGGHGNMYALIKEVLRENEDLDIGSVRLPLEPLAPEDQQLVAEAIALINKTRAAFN
Kind of data set: NAD+-coupled ManNAc dehydrogenase assay, […] nm. Type of data set: biochemical.

The target of data set [3] is N-acetylneuraminate lyase from Lactobacillus antri (Lactobacillus antri) (UniProt C8P490). Kind of data set: SEC; gel filtration on Superdex200 10/300 GL in 50 mM phosphate buffer pH 7.0 with 0.15 M NaCl; native mass compared with the subunit mass by HPLC/MS/ESI and SDS-PAGE. (In general: SEC sorts molecules by how far they enter the pores of the column.)
For data set [4], the target named is N-acetylneuraminate lyase from Lactobacillus sakei 23K (Lactobacillus sakei 23K) (UniProt Q38V37). The data set is described as above.
Substrate in data set [5]: CC(=O)C(=O)O
Briefly: Neu5Ac synthesis, HPLC-ELSD. The format is biochemical, Latilactobacillus sakei. To be noted: co-substrate ManNAc, 20 mM phosphate pH 7.0, 37 C. The text has this:
Neu5Ac synthesis, HPLC-ELSD on LsNAL

Substrate in data set [6]: CC(=O)C(=O)O
Kind of data set: Neu5Ac synthesis, HPLC-ELSD. The format is biochemical, Limosilactobacillus antri. To be noted: co-substrate ManNAc, 20 mM phosphate pH 7.0, 37 C. The text has this:
Neu5Ac synthesis, HPLC-ELSD on LaNAL

As usually defined, the Ki is the dissociation constant of the complex between target and ligand, obtained from inhibition or displacement. Higher therefore signals lower affinity. One may read the stoichiometry N as a count of units in the complex or per binding partner. For orientation: Km means the concentration of substrate that gives half-maximal velocity. By kcat is commonly meant the number of substrate molecules converted per active site and unit of time at saturation. Broadly, the kcat/Km is the second-order rate constant that governs catalysis at low substrate concentration.

In the case of `CC(=O)C(=O)O` [pyruvate], the Ki on LsNAL [1] is 400 µM; at LaNAL, 160 µM. Moreover, the Tm result on LsNAL [2] is listed as “protective effect was more evident at basic pHs”.
For the molecule “N-acetylneuraminate lyase from Lactobacillus antri (from UniProt C8P490 1-305) (enzyme)”, the stoichiometry N in data set [3] came out at 4.
As to “N-acetylneuraminate lyase from Lactobacillus sakei 23K (from UniProt Q38V37 1-305) (enzyme)”, the stoichiometry N in data set [4] came to 4.

B1: LsNAL (Latilactobacillus sakei subsp. sakei 23K) (protein)
chain: MKDLTKYKGIIPAFYACYDEAGEISPERVRALTEYYIKKGVKGVYVNGSSGECIYQSVEDRKIVLENVMAVAKGKLTVIAHVACNNTKDSVELAKHAESLQVDAIAAIPPIYFKLPEYSIANYWNTISAGAPNTDFIIYNIPQLAGVSLTTELYAEMRRNPNVIGVKNSSMPVQDIQMFCAAGGKDHIVFNGPDEQFLGGRLMGAAAGIGGTYGAMPALFLKLNTLISELKLEEAKDLQYAIDEIIYKMCSGHGNMYAMIKEILRINEQLDLGSVREPLAPLNEADLEIAKESATMITTAIEKYC
notes: N-terminal His-tag (pET-28a), E. coli Rosetta 2; nanA gene 918 bp; homotetramer 140 kDa; EC 4.1.3.3
For B1, in data set [5], the Michaelis constant (Km) amounted to 12500 ± 200 µM, the kcat stood at 3.9 ± 0.1 s⁻¹ and the kcat/Km amounted to 310 M⁻¹ s⁻¹.

B2: LaNAL (Limosilactobacillus antri DSM 16041; G210S/Y213G) (protein)
chain: MKDFSKYRGVFPAFYACYDDNGEVSPERVQQLTEYHLKKGVKGVYVNGSSGECIYLSVAERKMVLENVMKVAKGKLTVIAHVACNNTKDSVELAKHAESMGVDAIAAIPPIYFKLPDYSIAKYWNAISAAAPHTDFVIYNIPQLAGTALSASLYQQMLDNQQLIGVKNSSMPVQDIQIFKSLGGDDHLVFNGPDEQFISGRVMGAIGGISGTGGAMPDLFLKLNSFLKAGDLKNANKLQFMINEVIYKLAGGHGNMYALIKEVLRENEDLDIGSVRLPLEPLAPEDQQLVAEAIALINKTRAAFN
notes: N-terminal His-tag (pET-28a), E. coli Rosetta 2; nanA gene printed as 828 bp; homotetramer 140 kDa; EC 4.1.3.3
B2: in data set [6], the Michaelis constant (Km) came to 4300 ± 2000 µM, the kcat was found to be 3 ± 0.3 s⁻¹ and the kcat/Km was determined as 710 M⁻¹ s⁻¹.

B3: LaNAL (Limosilactobacillus antri DSM 16041) (protein)
chain: MKDFSKYRGVFPAFYACYDDNGEVSPERVQQLTEYHLKKGVKGVYVNGSSGECIYLSVAERKMVLENVMKVAKGKLTVIAHVACNNTKDSVELAKHAESMGVDAIAAIPPIYFKLPDYSIAKYWNAISAAAPHTDFVIYNIPQLAGTALSASLYQQMLDNQQLIGVKNSSMPVQDIQIFKSLGGDDHLVFNGPDEQFISGRVMGAIGGIGGTYGAMPDLFLKLNSFLKAGDLKNANKLQFMINEVIYKLAGGHGNMYALIKEVLRENEDLDIGSVRLPLEPLAPEDQQLVAEAIALINKTRAAFN
notes: as for B2
Regarding B3, in data set [6], the Km stood at 1100 ± 200 µM, the kcat stood at 5.6 ± 0.1 s⁻¹ and the kcat/Km came to 5100 M⁻¹ s⁻¹.

B4: LaNAL (Limosilactobacillus antri DSM 16041; P193Y) (protein)
chain: MKDFSKYRGVFPAFYACYDDNGEVSPERVQQLTEYHLKKGVKGVYVNGSSGECIYLSVAERKMVLENVMKVAKGKLTVIAHVACNNTKDSVELAKHAESMGVDAIAAIPPIYFKLPDYSIAKYWNAISAAAPHTDFVIYNIPQLAGTALSASLYQQMLDNQQLIGVKNSSMPVQDIQIFKSLGGDDHLVFNGYDEQFISGRVMGAIGGIGGTYGAMPDLFLKLNSFLKAGDLKNANKLQFMINEVIYKLAGGHGNMYALIKEVLRENEDLDIGSVRLPLEPLAPEDQQLVAEAIALINKTRAAFN
notes: as for B2
As to B4, in data set [6], the Km is 500 ± 10 µM, the turnover number (kcat) worked out at 0.99 ± 0.03 s⁻¹ and the kcat/Km came to 1980 M⁻¹ s⁻¹.
